Measured values as given in patent publication US6828136B2, “Esterase enzymes, DNA encoding esterase enzymes and vectors and host cells incorporating same” (Genencor International, Inc., priority 1996, dated 2004).
Where two headings read alike, the source gives them in different places.

How the values were obtained:
38 kD esterase = 38 kD esterase (Aspergillus awamori, UniProt Q9P979); test: API-20 enzyme test strip, substrate specificity for 38 kD esterase (Table 2); assay type: biochemical, Aspergillus niger; settings: API-20 strip
Description: Purified 38 kD esterase was analyzed for a variety of biochemical activities with an API-20 enzyme test strip (BioMerieux Vitek) according to the manufacturers instructions. […] “+++” indicates very strong response, “++” indicates strong response and “+” indicates activity shown towards substrate. “−” means no activity detected.

[1] = pH and temperature optimum of 38 kD esterase activity on methyl ferulate; assay type: biochemical; settings: for maximal activity: methyl ferulate
Description: The enzyme sample was chromatographed by hydrophobic interaction chromatography (Poros® HPEM phenyl ether, Perseptive BioSystems, perfusion chromatography, […]). The column was connected to a BioCad® Perfusion Chromatography Workstation (Perseptive BioSystems) and equilibrated with 5 column volumes Tris-HCl (50 mM, pH 7.4) plus 1.2 M ammonium sulfate. The sample (205 ml) was applied to the column and separated at a flow rate of 30 ml/min with a linear gradient from 1.2 M to 200 mM ammonium sulfate over 20 column volumes. […] Four fractions eluting at 750 mM ammonium sulfate contained 83% of the starting FAE activity. Active fractions were pooled (60 ml), dialysed by ultrafiltration into start buffer for next chromatographic step (10 kDa membrane, 20L of 25 mM sodium acetate buffer pH 5.0). The sample was concentrated to 10 ml in preparation for ion exchange chromatography.
(§1) The 38 kD esterase isolated according to Example 1 was analyzed for biochemical properties. […] When the 38 kD esterase was incubated in buffer for 30 minutes without substrate at pH 5.1, the temperature optima was 55° C.

[2] = Isoelectric point by isoelectric focusing (IEF) gel; assay type: physicochemical
Description: Upon native PAGE of a desalted active fraction from HPSEC a single protein band was observed, The isolelectric point of the FAE was determined using Phast gel Dry IEF equilibrated with a solution ampholyte, (20% final concentration, containing a mix of pI 2-4, 80%, pI 3-10 20%) Glycerol (10%) for 1 hour. Separation was performed as per manufacturers recommendation (Pharmacia Biotechnology, Dry IEF instruction bulletin) and stained with coomassie R-250. The sample migrated as a single protein band with an isolelectric point of about 2.8.

[3] = Activity of purified 38 kD esterase toward natural and synthetic substrates (in words); assay type: biochemical; settings: purified enzyme
Description: as §1

[4] = substrate: COC(=O)/C=C/c1ccc(O)c(OC)c1; test: purified protein, by the assay type; settings: other: substrate of purified 38 kD esterase
[5] = substrate: COc1cc(/C=C/C(=O)OC[C@@H]2O[C@@H](O[C@@H]3[C@@H](O)[C@H](O[C@@H]4COC(O)[C@H](O)[C@H]4O)OC[C@H]3O)[C@H](O)[C@H]2O)ccc1O; test: purified protein, by the assay type; settings: other: substrate of purified 38 kD esterase
[6] = substrate: COc1cc(/C=C/C(=O)OC[C@@H]2O[C@@H](O[C@H]3[C@H](O)COC(O)[C@@H]3O)[C@H](O)[C@H]2O)ccc1O; test: purified protein, by the assay type; settings: other: substrate of purified 38 kD esterase
[7] = substrate: COc1cc(/C=C/C(=O)OC[C@@H]2O[C@@H](O[C@@H]3[C@@H](O)[C@H](O[C@@H]4COC(O)[C@H](O)[C@H]4O)OC[C@H]3O[C@@H]3OC[C@@H](O)[C@H](O)[C@H]3O)[C@H](O)[C@H]2O)ccc1O; test: purified protein, by the assay type; settings: other: substrate of purified 38 kD esterase
[8] = from A. niger CBS120.49; cited from earlier work
[9] = from A. niger CBS120.49 grown on oat spelt xylan; cited from earlier work

Molecule: CCCC(=O)Oc1ccc2ccccc2c1 [2-naphthyl butyrate]
- Activity (38 kD esterase; pH 6.5): (+++)

Molecule: OC[C@H]1O[C@@H](Oc2ccc3ccccc3c2)[C@H](O)[C@@H](O)[C@H]1O [2-naphthyl-βD-galactopyranoside]
- Activity (38 kD esterase; pH 5.4): (++)

Molecule: OC[C@H]1O[C@H](Oc2ccc3cc(Br)ccc3c2)[C@H](O)[C@@H](O)[C@H]1O [6-Br-2-naphthyl-αD-galactopyranoside]
- Activity (38 kD esterase; pH 5.4): (+++)

Molecule: CCCCCCCC(=O)Oc1ccc2ccccc2c1 [2-naphthyl caprylate]
- Activity (38 kD esterase; pH 7.5): (++)

Molecule: COc1ccccc1NC(=O)c1cc2cc(Br)ccc2cc1OP(=O)(O)O [Naphthol-AS-BI-phosphate]
- Activity (38 kD esterase; pH 5.4): (++)

Molecule: OC[C@H]1O[C@@H](Oc2ccc3cc(Br)ccc3c2)[C@H](O)[C@@H](O)[C@@H]1O [6-Br-2-naphthyl-βD-glucopyranoside]
- Activity (38 kD esterase; pH 5.4): (+++)

Molecule: OC[C@H]1O[C@H](Oc2ccc3ccccc3c2)[C@H](O)[C@@H](O)[C@@H]1O [2-naphthyl-αD-glucopyranoside]
- Activity (38 kD esterase; pH 5.4): (+)

Molecule: CCCCCCCCCCCCCC(=O)Oc1ccc2ccccc2c1 [2-naphthyl myristate]
- Activity (38 kD esterase; pH 7.5): (+)

Molecule: O=P(O)(O)Oc1ccc2ccccc2c1 [2-naphthyl phosphate]
- Activity (38 kD esterase; pH 5.4): (+)

B1: 38 kD esterase: esterase derived from Aspergillus niger, about 38 kD on SDS-PAGE, amino acid sequence SEQ. ID NO:28 (protein)
chain: MKQFSAKHVLAVVVTAGHALAASTQGISEDLYSRLVEMATISQAAYADLCNIPSTIIKGEKIYNSQTDINGWILRDDSSKEIITVFRGTGSDTNLQLDTNYTLTPFDTLPQCNGCEVHGGYYIGWVSVQDQVESLVKQQVSQYPDYALTVTGHSLGASLAALTAAQLSATYDNIRLYTFGEPRSGNQAFASYMNDAFQASSPDTTQYFRVTHANDGIPNLPPVEQGYAHGGVEYWSVDPYSAQNTFVCTGDEVQCCEAQGGQGVNNAHTTYFGMTSGACTW
- temperature optimum ([1]; 250 μM methyl ferulate present): 65 °C
- maximal activity ([1]; pH 3): 83%
- maximal activity ([1]; pH 8): 25%
- pI (isoelectric point) [2]: about 2.8
- activity toward natural feruloyl and p-coumaroyl esters, cell walls of wheat bran and sugar beet pulp, wheat flour, pentosan fraction, ethyl and methyl esters of ferulic and p-coumaric acid [3]: active

B2: 38 kD esterase (Aspergillus awamori) (protein)
chain: ASTQGISEDLYSRLVEMATISQAAYADLCNIPSTIIKGEKIYNSQTDINGWILRDDSSKEIITVFRGTGSDTNLQLDTNYTLTPFDTLPQCNGCEVHGGYYIGWVSVQDQVESLVKQQVSQYPDYALTVTGHSLGASLAALTAAQLSATYDNIRLYTFGEPRSGNQAFASYMNDAFQASSPDTTQYFRVTHANDGIPNLPPVEQGYAHGGVEYWSVDPYSAQNTFVCTGDEVQCCEAQGGQGVNNAHTTYFGMTSGACTW
- Km [4]: 2080 µM
- Vmax [4]: 87 µmol/min/mg
- Km [5]: 19 µM
- Vmax [5]: 498 µmol/min/mg
- Km [6]: 78 µM
- Vmax [6]: 276 µmol/min/mg
- Km [7]: 52 µM
- Vmax [7]: 307 µmol/min/mg

B3: FAE-III: ferulic acid esterase isolated from Aspergillus niger CBS 120.49 (Faulds et al.) (protein, UniProt O42807 22-281, looked up)
Feruloyl esterase A: ASTQGISEDLYNRLVEMATISQAAYADLCNIPSTIIKGEKIYNAQTDINGWILRDDTSKEIITVFRGTGSDTNLQLDTNYTLTPFDTLPQCNDCEVHGGYYIGWISVQDQVESLVKQQASQYPDYALTVTGHSLGASMAALTAAQLSATYDNVRLYTFGEPRSGNQAFASYMNDAFQVSSPETTQYFRVTHSNDGIPNLPPADEGYAHGGVEYWSVDPYSAQNTFVCTGDEVQCCEAQGGQGVNDAHTTYFGMTSGACTW
- pH optimum [8]: 5
- temperature optimum [8]: 55-60 °C
- pI [9]: 3.3
